Where two headings read alike, the source gives them in different places.
Experiment: Pharmacokinetics in blood, lung tissue and BALF of rats after intratracheal administration
Type: in vivo
Experimental: The pharmacokinetic profile of the conjugates of the present invention was determined in blood and lung tissue of rats.
Peptide Conj. 8 (SEQ ID NO: 45) and Conj. 9 (SEQ ID NO: 46) were formulated in 0.9% saline and intratracheally administered to 5-7 week-old rats (Sprague Dawley; male; 224-250 g). The pharmacokinetic profile of the peptide conjugates was then determined in blood and lung tissue.
For subgroup A, whole blood samples were collected from animals at 0.083, 0.25, and 0.5 hours following drug administration and for subgroup B, whole blood samples were collected at 0.75, 1, and 2 hours following drug administration for plasma analysis. Lung and bronchoalveolar lavage fluid (BALF) were collected at 0.5 and 2 hours following drug administration.
Whole blood was collected by tail nick at the predetermined time points and then maximal volume by cardiac stick for the final time point. The plasma was spun and collected within 30 minutes of collection. Upon euthanasia of the animal, a necropsy was performed and lungs harvested and weighed for analysis. After weighing the lungs, BALF was collected with 0.5 mL of 0.9% saline. The lungs were then reweighed after BALF collection. Lung, BALF, and plasma samples were frozen until analysis.
Frozen lung tissue was homogenized using a Precellys Evolution tabletop homogenizer (3×6500 rpm) with 4× dilution using normal rat plasma. 50 μL aliquots of homogenized lung tissue was then transferred into a 96 well plate for extraction with methanol. Harvested BALF was transferred in 25 μL aliquots into a 96 well plate and diluted with 25 μL of rat plasma before extraction with methanol. Plasma samples were transferred in 50 μL aliquots into a 96 well plate for extraction with methanol.
Standards were prepared by producing a working stock solution of Conj. 8 and Conj. 9 at 1 mg/mL. The Conj. 8 assay was performed using Conj. 9 as an internal standard at 1000 ng/mL. The Conj. 9 assay was performed using Conj. 8 as an internal standard at 1000 ng/mL.
Extraction was performed by direct precipitation with 3 volumes (150 μL) of methanol containing 1000 ng/ml of Conj. 8 and Conj. 9 as an internal standard. The plate was vortexed, followed by centrifugation (10 minutes at 4° C. and 2500 g) and dried down under heated nitrogen. Reconstitution was in 100 μL of initial mobile phase A (0.1% TFA: 0.1% FA in water) with 5% of mobile phase B (CAN, 0.1% TFA: 0.1% FA), before placing in an autosampler.
Plasma, lung, and BALF samples were analyzed for Conj. 8 and Conj. 9 by liquid chromatography with tandem mass spectrometry (LC/MS/MS) (API 4000; Kinetex® 2.6 μm C18 Column 50×2.1 mm; column temp.=50° C.; mobile phase A-0.1% TFA: 0.1% FA in water; mobile phase B-ACN, 0.1% TFA: 0.1% FA; flow rate-0.25 mL/min). Pharmacokinetic parameters were derived using sparse sampling noncompartmental analysis methods of Phoenix WinNonLin® version 8.0 (Certara USA, Inc.).
Tmax, the time after dosing at which the maximum concentration was observed; Cmax, the maximum observed concentration measured after dosing; AUClast, the area under the concentration versus time curve from the start of dose administration to the last observed quantifiable concentration calculated using the log/linear trapezoidal method; and MRTlast, mean residence time as defined by AUMClast/AUClast.

[1] = male, Sprague Dawley, bronchoalveolar lavage fluid (BALF), other: intratracheal; BALF; rat, IT, 5 mg/kg
[2] = male, Sprague Dawley, lung tissue, other: intratracheal; Lungs; rat, IT, 5 mg/kg
[3] = male, Sprague Dawley, lung, other: intratracheal; Lungs; rat, IT, 5 mg/kg
[4] = male, Sprague Dawley, other: intratracheal; BALF; rat, IT, 5 mg/kg
[5] = male, Sprague Dawley, other: intratracheal; Plasma; rat, IT, 5 mg/kg

Row | Compound | MRT last [1] [min] | Tmax (male, Sprague Dawley, inhaled or intranasal; Plasma; rat, IT, 5 mg/kg) [min] | MRT last [2] [min] | AUC(0-t) [3] [ng·h/mL] | Tmax [3] [min] | Cmax (male, Sprague Dawley, lung, other: intratracheal; Lungs; rat, IT, 5 mg/kg; read-out: Cmax) [ng/mL] | AUC(0-t) [4] [ng·h/mL] | Tmax [4] [min] | Cmax (male, Sprague Dawley, other: intratracheal; BALF; rat, IT, 5 mg/kg; read-out: Cmax) [ng/mL] | AUC(0-t) [5] [ng·h/mL] | MRT last [5] [min] | Cmax (male, Sprague Dawley, other: intratracheal; Plasma; rat, IT, 5 mg/kg; read-out: Cmax) [ng/mL] | plasma concentration (limit of quantitation) (all plasma samples; rat, IT, 5 mg/kg) [ng/mL] | level at 0.5 h (male, Sprague Dawley, bronchoalveolar lavage fluid (BALF); 0.5 h; rat, IT, 5 mg/kg; read-out: BALF concentration) [ng/mL] | level at 2 h (male, Sprague Dawley, bronchoalveolar lavage fluid (BALF); 2 h; rat, IT, 5 mg/kg; read-out: BALF concentration) [ng/mL] | Cmax (male, Sprague Dawley, rat, BALF, other: intratracheal, 5 mg/kg, BALF, IT, read-out: Cmax) [ng/mL] | Cmax (male, Sprague Dawley, rat, lung, other: intratracheal, 5 mg/kg, Lungs, IT, read-out: Cmax) [ng/mL] | Cmax (male, Sprague Dawley, rat, lung, other: intratracheal, 5 mg/kg, at both 0.5 h and 2 h, IT, read-out: approximate mean Cmax concentration in lung tissues) [ng/mL]
1 | CC(=O)N[C@@H](Cc1cn(CCCCNC(N)=NC(=O)c2nc(Cl)c(N)nc2N)nn1)C(=O)NCCCCCC(=O)N[C@H](C(=O)N[C@@H](CO)C(=O)N[C@@H](CCCCN)C(=O)N[C@@H](CCCNC(=N)N)C(=O)N[C@@H](CCCNC(=N)N)C(N)=O)C(C)C [Conjugate 9, Ac-(AmilCC2-Pgy)-Ahx-VSKRR-NH2] | 39.8 | 30 | 55.9 | 362 | 30 | 352 | 2380 | 30 | 4290 | 293 | 29.5 | 2290 |  |  |  |  |  | 
2 | CC(=O)N[C@@H](Cc1cn(CCCCNC(N)=NC(=O)c2nc(Cl)c(N)nc2N)nn1)C(=O)NCCCCCC(=O)N[C@@H](C)C(=O)N[C@@H](CO)C(=O)N[C@@H](Cc1c[nH]cn1)C(=O)N[C@@H](CC(C)C)C(=O)N[C@@H](CCCNC(=N)N)C(=O)N[C@@H](CCCCN)C(=O)N[C@@H](CC(C)C)C(=O)N[C@@H](CCCNC(=N)N)C(=O)N[C@@H](CCCCN)C(=O)N[C@@H](CCCNC(=N)N)C(=O)N[C@@H](CC(C)C)C(=O)N[C@@H](CC(C)C)C(N)=O [Conjugate 8] | 75.6 |  | 69.6 | 22500 | 120 |  | 5910 | 120 |  |  |  |  | < 25 | 2910 | 3990 | 3990 | 13200 | ~13000
